Reference: PMC6823927
Non-standard residues stand in square brackets, D forms with d. No end group written: not given here. Dip = N[C@H](C(=O)O)C(c1ccccc1)c1ccccc1

How the values were obtained:
[1] = biological target: 175Cys-Fab (meditope-enabled trastuzumab Fab with Ala175 of the heavy chain changed to cysteine); assay: cross-linking
[2] = biological target: 175Cys-IgG1 (meditope-enabled trastuzumab IgG1 with Ala175 of the heavy chain changed to cysteine); assay: disulfide conjugation, dye-antibody ratio

B1: SQFDA(Ph)2… meditope (peptide)
peptide: SQFD[Dip]CTRRLQSGGSK
[1]
  stoichiometry N (meditope per Fab): 1

B2: SQFDA(Ph)2…-Alexa647 meditope (peptide)
peptide: SQFD[Dip]CTRRLQSGGSK-Alexa647
[2]
  stoichiometry N: 1.8 dyes per IgG
